Results taken from the DeepSol protein solubility set.

experiment: soluble on expression in E. coli; label from the status in PepcDB or PDB records

Row | Sequence | soluble on expression in E. coli
1 | MTNFATTDDVILLWRQLSVDEIKRAEALLETVSDTLRLEASKVGKNLDEMILETPYFATVLKSVTVDIVARTLMTATQGEPMSQESQSALGYTWSGTYLVPGGGLFIKDSELKRLGLKKQRYGGIELYGEIERNNSYFSRQDD | not soluble
2 | MGSDKIHHHHHHVSSTIWTPTAVASEAAAIRFSLWRAVEGQHAVSTMVLVDSLEEQALLEQLLEGSKPPVPASANGLHWLLFTPFRYPPPPTGSRFRGPLDPGVFYGADEIETACAELGFWRWQFLMESPSLTALDPKPQTVFKVEVDTLTVDLRSPPFTESRALWIDPKSYAATQDLARSAREANIGAIRYESVRAPNRGGCGAILTPMAFAEPQPRDAQTWWLSVSRERVLWQRDDVLQRATFAFDTKAFCE | not soluble
3 | MSLAAVQVVGSWPSVQPREAPREAIPERGNGFRLLSARLCALRPDDSSSARTEIHLLFDQLISENYSEGSGVAPEDVSALLVQACRLVPLNQNHLVSKVSQLIHHLLNRLQVIVDEQHLDFLLAYTISAIHQCSSWTHREILQALAALVYCNGSKCQKYLPELLGNTGLLMKLSDLAQSDPEVRRAAVHCMANLCLSVPGQPYLEEPYQNVCFQAFLTILQSPKSSDMDDITFCMLLQNALKGIQSLLNGGRMKLTQTDELGALLAVLKKFMFHGLPGLNIEMPTVLYPTPLPQYDGRTPIKEGHHHHHH | not soluble
4 | MPAIVLIGAQWGDEGKGKATDLLGGRVQWVVRYQGGNNAGHTVVLPTGENFALHLIPSGVLTPGVTNVIGNGVVIDPGVLLNELRGLQDRGVDTAKLLISADAHLLMPYHIAIDKVTERYMGSKKIGTTGRGIGPCYQDKIARIGIRVADVLDPEQLTHKVEAACEFKNQVLVKIYNRKALDPAQVVDALLEQAEGFKHRIADTRLLLNAALEAGETVLLEGSQGTLLDVDHGTYPYVTSSNPTAGGAAVGSGIGPTRIGTVLGILKAYTTRVGSGPFPTELFDEHGEYLSKTGREFGVTTGRRRRCGWFDAVIARYAARVNGITDYFLTKLDVLSSLESVPVCVGYEIDGRRTRDMPMTQRDLCRAKPVYEELPGWWEDISGAREFDDLPAKARDYVLRLEQLAGAPVSCIGVGPGREQTIVRRDVLQDRP | not soluble
5 | MEKNFKVAALYCFADLKHYRQLQKPLLDLCQAKDIKGTLLLAQEGINGTVAGSCAAIETLVDFITAEPAFQMPEIKYSWASKMPFHRMKVRLKKEIVTMGVDGVNPLKAVGTYVDPKDWNALIQDEETLLIDTRNDYEYAIGSFQGAVDPRIKTFREFPAWVLKHEADLKKKKKIAMFCTGGIRCEKSTAYVRELGYEQVYHLKGGILKYLETIPKEDSLWWGECFVFDERVSVKHGLEECGRELCRACRSPLNTESKLSPHYEEGVSCDACYNTRSEDDRERFRERHRQFQLSKLRAMHSHQELEHHHHHH | not soluble
6 | MIQVENLTKTINNQMILEDISIDIEKGKLTSLIGPNGAGKSTLLSAICRLIRFENGEVKIDGQLMSDYKNNDLSKKISILKQTNHTEMNITVEQLVNFGRFPYSKGRLTKEDHDIVNDALDLLQLQDIRNRNIKSLSGGQRQRAYIAMTIAQDTEYILLDEPLNNLDMKHAVQIMQTLKMLAHKMNKAIVIVLHDINFASCYSDQIVALKNGQLVKSDLKDNVIQSSVLSDLYDMNIQIEHIRNQRICLYFKD | not soluble
7 | MSLQDDIKEKKKLVVAVSPDYAPFEFKALVNGKDTVVGADIDLAKAIAKELGVKLELSSMSFDNVLSSLKTGKADIAISGLSYTKERAQAYDFSEAYYKTENAILIKKSDLNKYTMISSFNNKTKVAVQKGTIEEGLAKNQLKQSNITSLTSMGEAVNELKSGQVDAIDLEKPVAEGYVSQNSDLVLAKVALKTGEGDAKAVALPKDSGQLVKTVNKVIKKLKKEDKYKQFISDAVKLTGQQVDEGHHHHHH | soluble
8 | RGDSLNYRLLRPEVEKTGLQYPLVLFLHGAGERGSDNEKQLTHGGQMFLNPVNREKYPAFVLVPQCPEKDYWAYTSRPSSFIPSEMPVGQEITPVLRAVKELLDTYLDLPQVDRNRIYVVGLSMGGMATYDLAVRFPDTFAAAVPICGTVNPVRLADAANVRFRIFHGDADNVVPVEGSREAYKALKNLGAEVEYIEFPGCNHGSWNPAFNYPGFMEWLFAQRK | not soluble
9 | MHLDRQSLEKAKHLIQSGLIDTIEVGTIKGLQEIHRFLFEGLYEFAGKIRDKNIAKGNFRFANCLYLDLILPRIESMPQNNFNQIVEKYVEMNIAHPFLEGNGRATRIWLDLLLKKELKKIVLWDRIDKAAYLSAMERSPVNDLEIKTLLKKHLSSNTNDPLTLIKGITQSYYYEGL | soluble
10 | DNYVGGIPLTSAHSGTVSGGVYCDSYYGMGDQEAKASNTIEKTFTVPDNANVEWAMLLTNVYCGHMQNNYQGKAKVDFNGKNLGTETLNVPYTYSYNGGNGHVQVNDHVNRVTSDYMMYYDVTGLVKAGKNTAVVKTDPLDSSFDGRIRLVTLVVAYNDGSKKTIWYQVNRGHDADSYYSDDEMNENYIGSTAFQAALPEGSSLTDSKLTLVYQASSDGAYAFNGNALSSGTPQGTFSGSNTWDVKDSLKSSGTNTLTYDRTASFYKSVLGILTAEYTTSSSGDSTDDTPADNTTDNGSAGDTTDDISSDNTTNDTSSDNTTSDVPAGNTTNDTPADNTTDAKFSADLGVQAIKVSHNSAAKAWKNLVNTVNVTVINNGPEKAGSFALELYSEGSLLESKPINGLANGATEAVEFVWKPEDAKNYTLRAVVVPGSTINDANATNNELSKTQEVMHNGYIGDKPLETYLHGTVKGNIIYDYGNSSYVKVSSGDVYTAGHSLSLPEGAIVKYARLYNFWTWSATGSSGVIPSMSLDFAGSSLTPEAEYADQKGWGQYDYPTGTWAYNVTGLVSGSGNYITTVKNTNSDAENSFCIDGIALLVVYEDASGKETQYWINEGCDAVSTMSSSGGLTPDEATVKIAFAGDSIDLGNVDNARLWTTVQSGGHEGIALKFNEMSISGVYDSTPSSNLDIDEARDVTSYLLSQNNEAQIIAPSVTDNSGDYMIPSSAILAVSYKSETTDDTNITDDTNVTDDTNVTDGTNVTDDTNVTDGTNVTNDTNVTNDTNVTNDTNVTNDTNVTNDTNVTNDTNVTDDTNVTDGTNVTDGTNVTIDTNVTIDTNVTIDTNVTDNTNVTDDTNMKDDTNVTLKVNIIPVISLTVSPDSLDFGTVSPGTPSESLPLALKNNGGISIKVTAEVHDQENGPFATGLLLDQNIWSNYSKVLAAESAETSQAQLDLPL | not soluble
11 | SSSESEKDKERLIQAAKLFFFHIRDLVSFINRFVELFNLTMKTQILPMNLNEESCIKDFFEQMIRNFKEMQLMVDGKHKQMQKEPLCSKVLTAMTSAVEKCATIAPHHTAEDMLRNIQTSGAALVLKTSHVLVNLETSLSLLMQFPIMGLRLSDLYREETKEQSDATSDATTSEKNKSPECPKATTEETLRKLQDVLSPENAHTPVEAAADELEQFVKSMEITLQVLQKSIKTMEGDIFVLTQVQGK | soluble
12 | MEVSSVFIFPPKPKDVLTITLTPKVTCVVVDISKDDPEVQFSWFVDDVEVHTAQTQPREEQFNSTFRSVSELPIMHQDWLNGKEFKCRVNSAAFPAPIEKTISKTKGRPKAPQVYTIPPPKEQMAKDKVSLTCMITDFFPEDITVEWQWNGQPAENYKNTQPIMDTDGSYFVYSKLNVQKSNWEAGNTFTCSVLHEGLHNHHTEKSLSHSPGKE | soluble
13 | MGSDKIHHHHHHMYLKVYKEDVIEGLQKAANIIPAKTGAAYLRSIWLNAADGTLSVMATDSNIEFRGTYTAEVTEPGLAGVQGRAFVDLLRKLPAGEIVLQLDAEANVLRIEQGRRKYKLPVNDPVWFQNFSDFPADGAVVWSGDFLQELIDRIAFCISDEDAVEAIACLFMKPVAEGRIEACGLNGHQFAMLRFLHDDLHAKLPAEGVLVQKKYLGELKKWLGADEIELNISEKRMHLRTGDGRETFSLPLSSYQYPDYMNFIAKLQGEGVSNLEVDRKEGMDALDRLQIFNSDNNRCTYFDLSGGEVVLTAQGQDVGSASESLEASYDGDIRRIAFPTRNLIDIMNHYQSGRLRLTLTGAEGPCGISGEEDPEYQVIVMPMKIVEETYYSEEEV | not soluble
14 | SQFDILCKTPPKVLVRQFVERFERPSGEKIASCAAELTYLCWMITHNGTAIKRATFMSYNTIISNSLSFDIVNKSLQFKYKTQKATILEASLKKLIPAWEFTIIPYNGQKHQSDITDIVSSLQLQFESSEEADKGNSHSKKMLKALLSEGESIWEITEKILNSFEYTSRFTKTKTLYQFLFLATFINCGRFSDIKNVDPKSFKLVQNKYLGVIIQCLVTETKTSVSRHIYFFSARGRIDPLVYLDEFLRNSEPVLKRVNRTGNSSSNKQEYQLLKDNLVRSYNKALKKNAPYPIFAIKNGPKSHIGRHLMTSFLSMKGLTELTNVVGNFSDKRASAVARTTYTHQITAIPDHYFALVSRYYAYDPISKEMIALKDETNPIEEWQHIEQLKGSAEGSIRYPAWNGIISQEVLDYLSSYINRRIGHHHHHH | soluble
15 | GHMLWARLVGLARLEARALSKKERRSLLERLKPYYTRIPFSEKADLRLVKARTDSGEYEIITVDGVPCLFEWSDGRIYPTLQCLKAFGVDWLKGVVLVDKGAAIALAKGAHLMIPGVVGVEGSFTRGDVVAALYHETRTPVMVGVAEVDSSALEKLYREKARGRAVRRVHRLGDALWELAQEVGKRLSGS | soluble
16 | MGHAHSSSSNGSSQITANPHDEKTKEKVEKLFRQNNRTNRSRSLDNRTQEKLPNRPVGSSHSARFPKTRHIPVPLQGPRKSEEGPNGSISGLSRDDKRIIETCWFKCSQKQLRKCSCDMFWDILHTDEDILRLFRLDHVAPNRLKDNDYFKSHASNLALVLNLVVTNLQDNFDQAQDALQALGYQHLHLIDRTHFQTMYWDIFTDCFERNPPPSFKKGAEREVALKFHRF | not soluble
17 | MRNFDLSPLYRSAIGFDRLFNHLENNQSQSNGGYPPYNVELVDENHYRIAIAVAGFAESELEITAQDNLLVVKGAHADEQKERTYLYQGIAERNFERKFQLAENIHVRGANLVNGLLYIDLERVIPEAKKPRRIEINLEHHHHHH | soluble
18 | MHALVQLRGEVNMHTDIQDTLEMLNIHHVNHCTLVPETDAYRGMVAKVNDFVAFGEPSQETLETVLATRAEPLEGDADVDDEWVAEHTDYDDISGLAFALLSEETTLREQGLSPTLRLHPPRGGHDGVKHPVKEGGQLGKHDTEGIDDLLEAMR | soluble
19 | HLQTKTAAKTGEGLSESAIHRTFQQLASGFDTIYGGFGQAPKFPMPHMLMYLLRYDHNTGQENALYNVTKTLDSMANGGIYDHIGYGFARYSTDDEWLVPHFEKMLYDNALLLTAYTEAYQVTQNSRYKEICEQIITFIQREMTHEDGSFFSALDADTEGEEGKYYVWSKEEILKTLGDDLGTLYCQVYDITEEGNFEGKNIPNLIHTKREQIKEDAGLTEKELSLKLEDARQQLLKTREERTYPHVDDKVLTSWNALMIAGLAKAAKVYQEPKYLSLAKDAITFIENKLIIDGRVMVRYRDGEVKNKGFIDDYAFLLWAYLDLYEASFDLSYLQKAKKLTDDMISLFWDEEHGGFYFTGHDAEALIVREKEV | not soluble
20 | MGSDKIHHHHHHMSSEHQLLVGLLKKLKADALVLPTLPEVAMRVQEVVSRPDSSPKQVAEIIGQDAAISARMIKVANSAMYSRGIKAENINAAVTRIGLTQIKAIATSVAMEQLFISTNEMVWEVMDEVWRASIEVTSAACALLLKYSKTHKGCGLNYDTLTLASLVHNIGALPVLTEAEANPHLFTSIEQLRALVRKMQGPLGRAVLKSWDFSPEVTEVVERWADLPYLPEQVTYLDFVRAAAFYTGELRAGHDLEERLDVFLQRGLPVSPEYLGSDEFLDNYHSIKLSYE | not soluble
21 | MSKFSLKLGSKTLKKNISKKTKKKNSLQKANLFDWDDAETASLSHKPQSKIKIQSIDKFDLDEESSSKKKLVIKLSENADTKKNDAPLVEYVTEKEYNEVPVEEFGDALLRGMGWESDSEQDSKGDKTQSRNKDVSNVSQIHPDGLGIGAKLNKAINVEEASFMPVVKIDKITGTKVDDDKKNKS | soluble
